Patent publication US20210085800A1 (IMMUNOGEN, published 2021)

Columns and labels:
[1] = biological target: T1, folate receptor alpha (FRα) on the surface of KB and T47D cells (UniProt P15328 25-234, limits assumed); experiment: cell-based or functional assay
[2] = biological target: T1, folate receptor alpha (FRα) on the …; experiment: blocking of FRα on KB cells (2 µM) in a cytotoxicity assay
Method: The cell lines were cultured in culture medium as recommended by the cell supplier (ATCC or DSMZ). To each well of a flat bottom 96-well plate was added 1,000-2,000 cells in 100 μL of the culture medium. Conjugates were diluted into the culture medium using 3-fold dilution series and 100 μL were added per well. […] Control wells containing cells and the medium but lacking the conjugates, as well as wells containing medium only, were included in each assay plate. Assays were performed in triplicate for each data point. The plates were incubated at 37° C. in a humidified 6% CO₂ incubator for 5 to 6 days. Then the relative number of viable cells in each well was determined using either the Alamar Blue reagent according the manufacturer's protocol (Life Technologies) or the WST-8 based Cell Counting Kit-8 (Dojindo Molecular Technologies, Inc., Rockville, Md.). The apparent surviving fraction of cells in each well was calculated by first correcting for the medium background absorbance, and then dividing each value by the average of the values in the control wells (non-treated cells). The surviving fraction of cells was plotted against conjugate concentration in semi-log plots.

T1 sequence (P15328 25-234 limits assumed, stated change not applied): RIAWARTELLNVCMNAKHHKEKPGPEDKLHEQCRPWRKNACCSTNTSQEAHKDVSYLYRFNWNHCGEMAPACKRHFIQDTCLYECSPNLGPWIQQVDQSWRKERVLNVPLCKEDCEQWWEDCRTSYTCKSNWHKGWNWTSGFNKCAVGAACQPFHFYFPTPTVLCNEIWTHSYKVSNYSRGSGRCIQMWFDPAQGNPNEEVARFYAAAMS

Row | Binder | fold loss of cytotoxicity when FRα is blocked by unconjugated huMOV19 [1] [fold] | binding result [2]
1 | huMOV19-C442-D5 (antibody, IgG1, V domains shown, compound D5 linked through its maleimide to the thiol of the engineered Cys 442 (EU/OU numbering); average 2 mol D5/mol antibody) VH: QVQLVQSGAEVVKPGASVKISCKASGYTFTGYFMNWVKQSPGQSLEWIGRIHPYDGDTFYNQKFQGKATLTVDKSSNTAHMELLSLTSEDFAVYYCTRYDGSRAMDYWGQGTTVTVSS VL: DIVLTQSPLSLAVSLGQPAIISCKASQSVSFAGTSLMHWYHQKPGQQPRLLIYRASNLEAGVPDRFSGSGSKTDFTLTISPVEAEDAATYYCQQSREYPYTFGGGTKLEIKR | 100 | 
2 | huMOV19 antibody (unconjugated) (antibody, human IgG1, V domains shown, Human IgG1; also called humanized MOV19 antibody; M9346A; copies: 2 + 2) VH: QVQLVQSGAEVVKPGASVKISCKASGYTFTGYFMNWVKQSPGQSLEWIGRIHPYDGDTFYNQKFQGKATLTVDKSSNTAHMELLSLTSEDFAVYYCTRYDGSRAMDYWGQGTTVTVSS VL: DIVLTQSPLSLAVSLGQPAIISCKASQSVSFAGTSLMHWYHQKPGQQPRLLIYRASNLEAGVPDRFSGSGSKTDFTLTISPVEAEDAATYYCQQSREYPYTFGGGTKLEIKR |  | binds
3 | huMOV19-C442-D4 (antibody, IgG1, V domains shown, compound D4 linked through its maleimide to the thiol of the engineered Cys 442 (EU/OU numbering); average 2 mol D4/mol antibody) VH: QVQLVQSGAEVVKPGASVKISCKASGYTFTGYFMNWVKQSPGQSLEWIGRIHPYDGDTFYNQKFQGKATLTVDKSSNTAHMELLSLTSEDFAVYYCTRYDGSRAMDYWGQGTTVTVSS VL: DIVLTQSPLSLAVSLGQPAIISCKASQSVSFAGTSLMHWYHQKPGQQPRLLIYRASNLEAGVPDRFSGSGSKTDFTLTISPVEAEDAATYYCQQSREYPYTFGGGTKLEIKR | 100 | 
4 | huMOV19-sulfo-SPDB-D1 (antibody, V domains shown, compound D1 linked through a sulfo-SPDB linker to lysine side chain amino groups (positions and chain not stated)) VH: QVQLVQSGAEVVKPGASVKISCKASGYTFTGYFMNWVKQSPGQSLEWIGRIHPYDGDTFYNQKFQGKATLTVDKSSNTAHMELLSLTSEDFAVYYCTRYDGSRAMDYWGQGTTVTVSS VL: DIVLTQSPLSLAVSLGQPAIISCKASQSVSFAGTSLMHWYHQKPGQQPRLLIYRASNLEAGVPDRFSGSGSKTDFTLTISPVEAEDAATYYCQQSREYPYTFGGGTKLEIKR | 100 | 
5 | huMOV19-D2 (antibody, V domains shown, compound D2 linked to lysine residues (positions and chain not stated)) VH: QVQLVQSGAEVVKPGASVKISCKASGYTFTGYFMNWVKQSPGQSLEWIGRIHPYDGDTFYNQKFQGKATLTVDKSSNTAHMELLSLTSEDFAVYYCTRYDGSRAMDYWGQGTTVTVSS VL: DIVLTQSPLSLAVSLGQPAIISCKASQSVSFAGTSLMHWYHQKPGQQPRLLIYRASNLEAGVPDRFSGSGSKTDFTLTISPVEAEDAATYYCQQSREYPYTFGGGTKLEIKR | 100 | 
